{
  "source": "paper doi:10.1101/865998",
  "about": "(bioRxiv, 2019)",
  "molecules": {"B1": {"name": "CX3CL1-EYFP fusion protein (L929 cells stably expressing CX3CL1, L_(CX3CL1)) (natural protein)", "chain": "QHHGVTKCNITCSKMTSKIPVALLIHYQQNQASCGKRAIILETRQHRLFCADPKEQWVKDAMQHLDRQAAALTRNGGTFEKQIGEVKPRTTPAAGGMDESVVLEPEATGESSSLEPTPSSQEAQRALGTSPELPTGVTGSSGTRLPPTPKAQDGGPVGTELFRVPPVSTAATWQSSAPHQPGPSLWAEAKTSEAPSTQDPSTQASTASSPAPEENAPSEGQRVWGQGQSPRPENSLEREEMGPVPAHTDAFQDWGPGSMAHVSVVPVSSEGTPSREPVASGSWTPKAEEPIHATMDPQRLGVLITPVPDAQAATRRQAVGLLAFLGLLFCLGVAMFTYQSLQGCPRKMAGEMAEGLRYIPRSCGSNSYVLVPV"}},
  "key": {"[1]": {"molecular_target": "TM24 peptide expressed as a EYFP fusion in COS cells", "assay": "FRAP"}, "[2]": {"molecular_target": "the molecule itself", "assay": "SDS-PAGE without cross-linker"}, "[3]": {"molecular_target": "the molecule itself", "assay": "FRAP"}, "[4]": {"molecular_target": "the molecule itself", "assay": "native gel or EMSA"}},
  "note": "Values joined by “and” are separate entries in the source; they are usually repeats but may differ in a detail not shown here. Equal values may be shown once. No end group written: not given here.",
  "data": [
    {"molecule": "TM24 peptide expressed as a EYFP fusion in COS cells (domain or fragment)", "values": [
      {"measurement": "stoichiometry N", "setting": "[1]", "value": 7}
    ]},
    {"molecule": "KKVGLLAFLGLLFCLGVAMFTYKK", "note": "[TM24 peptide (20 residues of the CX3CL1 TM domain with 2 lysines added at each end)]", "values": [
      {"measurement": "stoichiometry N", "setting": "[2]", "value": 2}
    ]},
    {"molecule": "KKVGLLAFLGLLFCLGVAMFTYKK (also: FITC conjugated, position not given here)", "note": "[TM24-FITC]", "values": [
      {"measurement": "binding result", "setting": "[3]", "value": "binds"}
    ]},
    {"molecule": "B1", "values": [
      {"measurement": "stoichiometry N", "setting": "[4]", "value": "~3 and 5 and ≥ 3"}
    ]}
  ]
}
